According to PMC4324353:
Where two headings read alike, the source gives them in different places.

How the values were obtained:
[1] = biological target: T1, latrunculin B bound actin (A. castellani actin monomer) (A. castellani); experiment: fluorescence polarisation
[2] = biological target: T1, latrunculin B bound actin (A. …); experiment: fluorescence polarisation; remark: listed apart in the source
[3] = biological target: actin filaments (polymerized A. castellani actin) (A. castellani); experiment: steady state polymerization titration

| Binder | Kd [1] | Kd [2] | Kd [3] |
| --- | --- | --- | --- |
| WARFWVQVIDELRRGVRLKKSNHERT (domain or fragment, modifications not checked) [Spir first WH2 domain (SA)] | 1140 nM | 90 to 1130 nM | – |
| KKDAHAMILEFIRSRPPLKKASDRQLGPPRMCEPS (domain or fragment, modifications not checked) [Spir third WH2 domain with Linker 3 (SC3)] | 110 nM | – | – |
| KKDAHAMILEFIRSRPPLKKA (domain or fragment, modifications not checked) [Spir third WH2 domain (Spir-C, SC)] | 210 nM | – | 2000 nM |
